Broadly, the IC50 is the concentration that inhibits the measured activity by half. Lower therefore signals higher potency.

Data set [1] in a line: Stability of radiolabeled conjugates in buffer (radiochemical purity over time). The class given is physicochemical. The conditions noted are these: NH4-acetate buffer pH 5.2, ethanol, room temperature. Here is the method:
The stability of ^177Lu/^68Ga-labeled DOTA-conjugated peptides in ammonium acetate buffer (0.4 M, pH 5.2) and sodium acetate buffer (0.2 M, pH 4-4.5) was assessed by determining the radiochemical purity (RCP) of each radiolabeled conjugate at different time points (0, 1, 2, 4, and 24 h for ^177Lu-complexes and at 0, 1 and 2 h for ^68Ga-complexes) at room temperature. For this, an aliquot of labeling solution was stored at room temperature. RP-HPLC injections were consecutively performed at the desired time points.
Radiolysis-induced instability of [^177Lu]Lu-labeled DOTA-conjugated peptides over time was tracked by determining the radiochemical purity (Table 3). Results are means±standard deviation from a minimum of two separate experiments.

A short description of data set [2]: Lipophilicity, shake-flask method (n-octanol/PBS pH 7.4). The class given is physicochemical. Here is the method:
The hydrophilic/lipophilic character of the ^177Lu/^68Ga-labeled conjugates was determined by the “shake-flask” method. To a pre-saturated solution containing 500 μL of n-octanol and 500 μL of phosphate-buffered saline (PBS) at pH 7.4, 10 μL of 1 picomol ^177Lu/^68Ga-labeled conjugates was added. The solutions were vortexed for 1 h to reach equilibrium and then centrifuged (3000 rpm) for 10 min. Hundred μl of the sample was removed from each phase and measured in a γ-counter. The partition coefficient was calculated as the average of the logarithmic values (n=3) of the ratio between the radioactivity in the organic and the PBS phase. Results are means±standard deviation from a minimum of two separate experiments. ^177Lu/^68Ga-labeled Pentixather, which is a known CXCR4-directed endoradiotherapeutic agent, is used as reference molecule.

Data set [3] relates to CXCL12-induced AKT signaling. As to the kind of experiment: ERK/AKT signaling assay in SupT1 cells: AKT phosphorylation. The class given is cell-based. The settings on record: 10 μM. A digest of the protocol: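 SupT1 cells in 1% FCS medium preincubated 15 min at 37 °C with compound, then stimulated 2 min with CXCL12 (100 ng/ml final). PFA-fixed, methanol-permeabilized cells stained for phospho-ERK1/2 (Tyr204/Tyr187) or phospho-AKT (Ser473) and read by flow cytometry; two or three independent experiments in triplicate.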

Data set [4] concerns CXCL12-induced ERK signaling. As to the kind of experiment: ERK/AKT signaling assay in SupT1 cells: ERK phosphorylation. The class given is cell-based. The settings on record: 1 μM. The method, then:
Third, the activity of the claimed EPI-X4 derivatives was tested by the effect on CXCL12/CXCR4-mediated ERK (Extracellular-signal Regulated Kinases) and AKT (a serine/threonine-protein kinase) signaling (FIG. 3). In that assay CXCR4 expressing cells are stimulated with the CXCR4 chemokine-ligand CXCL12, which subsequently leads to phosphorylation of ERK and AKT. Preincubation of cells with CXCR4-antagonists blocks those pathways. […] Two or three independent experiments were carried out in triplicates for each peptide in each assay. The error bars refer to the standard deviation.
ERK/AKT signaling assay. CXCL12 induced ERK and AKT phosphorylation was determined in SupT1 cells. For this, 100,000 cells were seeded per well in a 96-V well plate in 100 μl medium supplemented with 1% FCS. Cells were incubated for 2 hours at 37° C. before 5 μl of compounds were added. After 15 min incubation at 37° C. cells were stimulated by adding 5 μl CXCL12 diluted in PBS to reach a final concentration of 100 ng/ml. Cells were further incubated for 2 min before the reaction was stopped by adding 20 μl of 10% PFA. Cells were fixed for 15 min at 4° C. before PFA was removed and cells permeabilized by adding 100 μl ice cold methanol. After 15 min at 4° C. the methanol was removed, cells were washed and 30 μl primary antibody was added (phospho-p44/42 MAPK (Erk1) (Tyr204)/(Erk2) (Tyr187) (D1H6G) mouse mAb #5726; phosphor-Akt (Ser473) (193H12) rabbit mAb #4058 Cell Signaling) for 1 hour at 4° C. After the antibody was removed and cells were washed secondary antibody was added for 30 min. Cells were washed afterwards and subsequently analyzed by flow cytometry.

Data set [5] in a line: Functional stability assay in human plasma. The gist of the method: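 EPI-X4 derivatives at 20 μM final in pooled human plasma or whole blood (EDTA), incubated at 37 °C with shaking for 2 or 8 h. Residual activity was measured by 12G5-APC antibody competition on CXCR4 and compared with a non-incubated t=0 sample. Blood samples were centrifuged to remove cells before the competition assay.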

Data set [6] is described as follows: Stability assay in human S9 liver fractions. The settings on record: with cofactors.
Protocol: Further, the stability of peptides in human S9 liver fractions (in the presence of cofactors) was tested (FIG. 12). […] To simulate and predict hepatic metabolic clearance, peptides were added to human S9 liver fractions. […] For each peptide, three independent experiments were performed.
Stability assay in human S9 liver fractions. Pooled human liver S9 fractions were obtained from Thermo Fisher Scientific at a total protein concentration of 20 mg/ml. Fractions were stored in 25 μl aliquots at −80° C. For stability experiments, they were diluted to a final concentration of 0.5 mg/ml in Tris buffer. Cofactors (or buffer) were added immediately before start of the experiment (NADPH: 1 mM, UDPGA: 0.5 mM, GSH: 2.5 mM, PAPS: 0.05 mg/ml, Sigma Aldrich). The reaction was started by adding peptides or compounds at a concentration of 20 μM to the mixture and gentle agitation at 37° C. Determination of enzymatic stability was performed as described for plasma.
Data set [7] deals with T1, CXC chemokine receptor type 4 (CXCR4) (human, UniProt P61073 1-352). The data set is described as follows: cell-based or functional assay.
Data set [8] deals with T1, CXC chemokine receptor type 4 (CXCR4). As to the kind of experiment: antibody competition assay. The method, then: Antibody competition assay. Competition of compounds with antibody binding was performed on SupT1 cells. For that cells were washed in PBS containing 1% FCS and 50,000 cells were then seeded per well in a 96 V-well plate. Buffer was removed and plates were precooled at 4° C. […] The antibody was used at a concentration closed to its determined Kd. 15 μl compounds were then added to the cells and 15 μl antibody immediately afterwards. Plates were incubated at 4° C. in the dark for 2 hours. Afterwards cells were washed twice with PBS containing 1% FCS and fixed with 2% PFA. Antibody binding was analyzed by flow cytometry (FACS CytoFLEX; Beckman Coulter®).

The target of data set [9] is T2, CXC chemokine receptor type 4 (CXCR4) (human, UniProt P61073 1-352).
T2 chain: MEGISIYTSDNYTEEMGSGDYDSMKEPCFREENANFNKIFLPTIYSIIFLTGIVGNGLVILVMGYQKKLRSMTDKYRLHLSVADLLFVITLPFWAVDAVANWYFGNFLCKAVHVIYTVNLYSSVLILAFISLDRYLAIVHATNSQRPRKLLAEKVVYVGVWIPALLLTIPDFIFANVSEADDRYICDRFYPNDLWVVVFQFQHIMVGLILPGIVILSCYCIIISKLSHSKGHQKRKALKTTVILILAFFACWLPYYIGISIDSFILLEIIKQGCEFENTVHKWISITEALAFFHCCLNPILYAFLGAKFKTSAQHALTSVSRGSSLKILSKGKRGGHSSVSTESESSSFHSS
The data set is described as follows: 12G5 antibody competition.

“And” between values parts separate entries of the source, which are not always exact repeats. Equal entries are not always repeated. Where two headings read alike, the source gives them in different places. Where a SMILES comes first, the peptide text is derived from it. Where no end group is shown, it is not given here. Side-chain parts run from the residue outwards. [ ]: non-standard residue; d: D form. The star is where a group is joined. DOTA = O=C(O)CN1CCN(CC(=O)O)CCN(CC(=O)*)CCN(CC(=O)O)CC1; Stearoyl = CCCCCCCCCCCCCCCCCC(=O)*; Palmitoyl = CCCCCCCCCCCCCCCC(=O)*; Glu = glutamate linker

In the case of “[^177Lu]Lu-DOTA-K-JM#122: ^177Lu-labeled DOTA-K-JM #122 (SEQ ID NO.: 102) (ILRWSRKLPSVSK(DOTA); also: 177Lu complex of DOTA)”, the Radiochemical purity turned out to be 97 ± 0% in data set [1] (time point 0 h); 97 ± 0% in data set [1] (time point 1 h); 96 ± 1% in [1] (time point 2 h); 96 ± 1% in data set [1] (time point 4 h); 78 ± 1% in [1] (time point 24 h); 78±1% in [1] (time point 24 h, listed as [^177Lu]Lu-DOTA-K-JM #207). For the same molecule, the “log DO/PBS pH7.4” value is −3.23 ± 0.23 in [2] and −3.23±0.23 in [2] (listed as [^177Lu]Lu-DOTA-K-JM #122).

Turning to `CC[C@H](C)[C@H](N)C(=O)N[C@H](C(=O)N[C@@H](CCCNC(=N)N)C(=O)N[C@@H](Cc1c[nH]c2ccccc12)C(=O)N[C@@H](CO)C(=O)N[C@@H](CCCCN)C(=O)N[C@@H](CCCCN)C(=O)N[C@H](C(=O)N1CCC[C@H]1C(=O)N[C@@H](CS)C(=O)N[C@H](C(=O)N[C@@H](CO)C(=O)O)C(C)C)C(C)C)C(C)C` [WSC02, reference compound] (H-IVRWSKKVPCVS-OH; C-terminus assumed), the “reduction of CXCL12-induced AKT signaling” value in [3] is on record as “about 50%”. Also, the “reduction of CXCL12-induced ERK signaling” value in [4] is listed as 20%. Also, the “remaining (relative) activity after 2 hours of plasma incubation” value in [5] (human plasma, 2 hours) is “completely inactive”. Moreover, the “remaining activity in human S9 liver fractions after 2 hours” value in [6] (2 hours) is on record as “readily inactivated by liver enzymes”.

Turning to “[^177Lu]Lu-DOTA-K-JM#29: ^177Lu-labeled DOTA-K-JM #29 (SEQ ID NO.: 165) ([dL]LRWSRKMPCVSK(DOTA); also: 177Lu complex of DOTA)”, the Radiochemical purity in data set [1] (time point 0 h) was 98 ± 1%; in data set [1] (time point 1 h), 96 ± 3%; in data set [1] (time point 2 h) it was 92 ± 9%; in [1] (time point 4 h), 90 ± 9%. In addition, the “log DO/PBS pH7.4” value in [2] is recorded as −1.49 ± 0.29.

As to “[^177Lu]Lu-DOTA-JM#118: ^177Lu-labeled DOTA-JM #118 (SEQ ID NO.: 166) (ILRWSRK(DOTA)-NH2; also: 177Lu complex of DOTA)”, the Radiochemical purity in data set [1] (time point 0 h) was 99 ± 0%; in [1] (time point 1 h), 98 ± 0%; in data set [1] (time point 2 h), 97 ± 1%; in data set [1] (time point 4 h), 95 ± 1%; in data set [1] (time point 24 h) it was 80 ± 2%; in data set [1] (time point 24 h, listed as [^177Lu]Lu-DOTA-JM #118), 80±2%. Besides, the “log DO/PBS pH7.4” value in data set [2] was −3.12 ± 0.43.

`CC[C@@H](C)[C@@H](N)C(=O)N[C@@H](CC(C)C)C(=O)N[C@@H](CCCNC(=N)N)C(=O)N[C@@H](Cc1c[nH]c2ccccc12)C(=O)N[C@@H](CO)C(=O)N[C@@H](CCCNC(=N)N)C(=O)N[C@@H](CCCCN)C(N)=O` [JM #173, d-ILRWSRK-NH2] (H-[dI]LRWSRK-NH2): in data set [5] (human plasma, 8 hours), the “remaining (relative) activity after 8 hours of plasma incubation” value is 100%. In data set [5] (human, plasma), the “functional stability in human plasma (in words)” value is recorded as “completely resistant to plasma enzymes”. In data set [6] (8 hours), the “remaining activity in human S9 liver fractions after 8 hours” value is “about 14%”.

Take “[^177Lu]Lu-DOTA-K-JM#21: ^177Lu-labeled DOTA-K-JM #21 (SEQ ID NO.: 101) (ILRWSRKLPCVSK(DOTA); also: 177Lu chelated)”: the Radiochemical purity in [1] (time point 1 h) is 93 ± 3%; in data set [1] (time point 2 h), 92 ± 6%; in data set [1] (time point 4 h), 90 ± 7%; in [1] (time point 24 h) it was 62 ± 13%. The “log DO/PBS pH7.4” value in data set [2] was −1.91 ± 0.24.

For ILRWSRKLPCVS (not fully specified (residue 7)) [JM#198], the “IC50, HIV inhibition assay” value in data set [7] is more than 150 nM. Also, the IC50 in data set [8] was less than 25 nM.

B1: SEQ ID NO.: 164 (peptide)
peptide: ILRWSRK([Glu-Stearoyl])LPSVS
notes: derived from JM#198 by replacing the cysteine at position 10 by a serine; also called ILRWSRK(Glu-Ste)LPSVS
In the case of B1, the “IC50, HIV inhibition assay” value in data set [7] is more than 150 nM. The same molecule gave an IC50 in data set [8] of less than 25 nM.

As to [dM]LRWSRK([Glu-Palmitoyl])-NH2 [JM#196], the “IC50, HIV inhibition assay” value in [7] is more than 150 nM. For the same molecule, the values for the IC50 in data set [8] and in [9] were less than 25 nM and 31 nM, respectively.

Take [dM]LRWSRKK-NH2 (not fully specified (residue 8)) [JM#197]: the “IC50, HIV inhibition assay” value in data set [7] was more than 150 nM. Also, in data set [8], the 50% inhibitory concentration (IC50) is less than 25 nM.

As to [dL]MRWSRKK-NH2 (not fully specified (residue 8)) [JM#195], the “IC50, HIV inhibition assay” value in [7] is 50 nM to 150 nM (2×) and > 150 nM. This molecule also came in with a concentration for half-maximal inhibition (IC50) in data set [8] of less than 25 nM.

For the origin of these results see patent US20230131339A1, “EPI-X4 BASED PEPTIDES AND DERIVATIVES THEREOF” (Universitaet Ulm, priority 2020, published 2023).
